Residue numbers refer to the chain shown, from its start. Names may count otherwise.
B1: recombinant CMP1 LC (light chain of clostridial mosquitocidal protein 1) (protein)
chain: LQIRVFNYNDPIDGENIVELRYHNRSPVKAFQIVDGIWIIPERYNFTNDTKKVPDDRALTILEDEVFAVRENDYLTTDVNEKNSFLNNITKLFKRINSSNIGNQLLNYISTSVPYPVVSTNSIKARDYNTIKFDSIDGRRITKSANVLIYGPSMKNLLDKQTRAINGEEAKNGIGCLSDIIFSPNYLSVQTVSSSRFVEDPASSLTHELIHALHNLYGIQYPGEEKFKFGGFIDKLLGTRECIDYEEVLTYGGKDSEIIRKKIDKSLYPDDFVNKYGEMYKRIKGSNPYYPDEKKLKQSFLNRMNPFDQNGTFDTKEFKNHLMDLWFGLNESEFAKEKKILVRKHYITKQINPKYTELTNDVYTEDKGFVNGQSIDNQNFKIIDDLISKKVKL
B2: catalytically inactive CMP1 LC E209Q mutant (protein)
chain: B1 chain with E208Q

Assays:
[1] = biological target: An. gambiae syntaxin H252N mutant
[2] = biological target: An. gambiae syntaxin L271V mutant
[3] = biological target: An. gambiae syntaxin M257V mutant
[4] = biological target: An. gambiae syntaxin Q261E T262R double mutant
[5] = biological target: An. gambiae syntaxin T264V Q265S double mutant
[6] = biological target: recombinant An. gambiae syntaxin1A fragment
[7] = biological target: recombinant human syntaxin1A fragment, Q16623
recombinant human syntaxin1A fragment, Q16623, sequence (Q16623 whole entry, looked up, the tested form may be a part): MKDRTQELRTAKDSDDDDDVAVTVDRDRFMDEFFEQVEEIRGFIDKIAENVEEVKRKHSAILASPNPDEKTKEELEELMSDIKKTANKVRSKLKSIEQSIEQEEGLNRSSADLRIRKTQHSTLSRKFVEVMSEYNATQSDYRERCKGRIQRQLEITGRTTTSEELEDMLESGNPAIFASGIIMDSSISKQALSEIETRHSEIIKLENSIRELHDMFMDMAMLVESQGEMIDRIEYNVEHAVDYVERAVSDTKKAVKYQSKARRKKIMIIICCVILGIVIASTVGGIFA

| Protein | cleavage of syntaxin mutant (Western blot) [1] | cleavage of syntaxin mutant (Western blot) [2] | cleavage of syntaxin mutant (Western blot) [3] | cleavage of syntaxin mutant (Western blot) [4] | cleavage of syntaxin mutant (Western blot) [5] | cleavage of recombinant SNARE protein (SDS-PAGE / Western blot) [6] | cleavage of recombinant SNARE protein (SDS-PAGE / Western blot) [7] |
| --- | --- | --- | --- | --- | --- | --- | --- |
| B1 | Syntaxin mutants were cleaved with less efficiency than non-mutated syntaxin | the L271V mutant completely abolished cleavage | Syntaxin mutants were cleaved with less efficiency than non-mutated syntaxin | Syntaxin mutants were cleaved with less efficiency than non-mutated syntaxin | Syntaxin mutants were cleaved with less efficiency than non-mutated syntaxin | CMP1 LC cleaves the mosquito syntaxin resulting in a band of lower molecular weight that corresponds to cleavage of C-terminus of syntaxin | CMP1 LC was not able to cleave the recombinant human syntaxin1A |
| B2 |  |  |  |  |  | no cleavage was observed by the catalytically inactive CMP1 LC E209Q mutant |  |

From patent publication US20190364907
